{"source": "patent US20170204167A1", "about": "(INSTITUTE FOR RESEARCH IN BIOMEDICINE, published 2017)", "binders": {"B1": {"name": "FI6 variant 2 (antibody, V domains shown)", "VH": "QVQLVQSGGGVVQPGRSLRLSCVASGFTFSTYAMHWVRQAPGRGLEWVAVISYDGNYKYYADSVKGRFSISRDNSNNTLHLEMNTLRTEDTALYYCAKDSQLRSLLYFEWLSQGYFDPWGQGTLVTVTS", "VL": "DIQMTQSPDSLAVSLGARATINCKSSQSVTFNYKNYLAWYQQKPGQPPKVLIYWASARESGVPDRFSGSGSGTDFTLTISSLQAEDVAVYYCQQHYRTPPTFGQGTKVEIK"}, "B2": {"name": "FI6 variant 3 (antibody, V domains shown)", "VH": "QVQLVESGGGVVQPGRSLRLSCAASGFTFSTYAMHWVRQAPGKGLEWVAVISYDANYKYYADSVKGRFTISRDNSKNTLYLQMNSLRAEDTAVYYCAKDSQLRSLLYFEWLSQGYFDYWGQGTLVTVSS", "VL": "not shown"}, "B3": {"name": "FI28 variant 1 (antibody, V domains shown)", "VH": "EVQLVESGGGAVQPGESLKLSCAASGFTFSNYGMHWVRQAPGKGLEWVAVISYDGSNKYYADSVKGRFTISRDNSKDTLYLQMNSLRAEDTALFYCAKERPLRLLRYFDWLSGGANDYWGQGTLVTVSS", "VL": "DIVMTQSPDSLAVSLGERATINCKSSQSVLYSSNNKNYLAWYQQKPGQPPKLLIDWASTRESGVPDRFSGSGSGTDFTLTISNLQVEDVAVYYCQQYYRSPSFGQGTKLEIK"}}, "key": {"HA of H5N1 A/WS/MONG/05": {"target": "HA of H5N1 A/WS/MONG/05 (influenza A virus H5N1 A/WS/MONG/05)", "assay": "cell-based or functional assay"}, "HA of H5N1 A/INDO/5/05": {"target": "HA of H5N1 A/INDO/5/05 (influenza A virus H5N1 A/INDO/5/05)", "assay": "cell-based or functional assay"}, "HA of H5N1 A/HK/213/03": {"target": "HA of H5N1 A/HK/213/03 (influenza A virus H5N1 A/HK/213/03)", "assay": "cell-based or functional assay"}, "[1]": {"target": "T1, HA of H7N1 A/ck/FPV/Rostock/34 (influenza A virus H7N1 …, UniProt P03459 19-563)", "assay": "cell-based or functional assay"}, "[2]": {"target": "HA of H7N1 A/ck/IT/13474/99 (influenza A virus H7N1 A/ck/IT/13474/99)", "assay": "cell-based or functional assay"}, "HA of H5N1 A/AH/1/05": {"target": "HA of H5N1 A/AH/1/05 (influenza A virus H5N1 A/AH/1/05)", "assay": "cell-based or functional assay"}, "HA of H5N1 A/HK/491/97": {"target": "HA of H5N1 A/HK/491/97 (influenza A virus H5N1 A/HK/491/97)", "assay": "cell-based or functional assay"}, "[3]": {"target": "HA of H14N5 A/mallard/Astrakhan/263/82 on transfected 293 cells (influenza A virus H14N5 …, UniProt P26136 18-568)", "assay": "staining of HA-transfected 293 cells"}, "[4]": {"target": "HA of H12N5 A/duck/Alberta/60/76 on transfected 293 cells (influenza A virus H12N5 …, UniProt P03446 17-564)", "assay": "staining of HA-transfected 293 cells"}, "[5]": {"target": "HA of H13N6 A/gull/Maryland/704/77 (ELISA antigen) (influenza A virus H13N6 …, UniProt P13103 19-532)", "assay": "ELISA on recombinant or purified HA"}, "[6]": {"target": "HA of H2N2 A/Singapore/1/57 (influenza A virus H2N2 A/Singapore/1/57, UniProt Q67333 16-525)", "assay": "ELISA on recombinant or purified HA"}, "HA of H5 A/VN/1194/04": {"target": "HA of H5 A/VN/1194/04 (influenza A virus H5 A/VN/1194/04)", "assay": "cell-based or functional assay"}, "[7]": {"target": "T1, HA of H7N1 A/ck/FPV/Rostock/34", "assay": "cell-based or functional assay", "remark": "listed apart in the source"}, "HA of H1N1 A/PR/8/34": {"target": "HA of H1N1 A/PR/8/34 (influenza A virus H1N1 A/PR/8/34, UniProt P03452 18-565)", "assay": "cell-based or functional assay"}, "[8]": {"target": "HA of H4N6 A/duck/Czechoslovakia/56 (ELISA antigen) (influenza A virus H4N6 …, UniProt P19696 17-527)", "assay": "ELISA on recombinant or purified HA"}}}
{"binder": "B1", "values": [{"measurement": "Neutralization of HA-pseudotypes (IC90, µg/ml)", "setting": "HA of H5N1 A/WS/MONG/05", "result": 0.03, "unit": "µg/mL"}, {"measurement": "Neutralization of HA-pseudotypes (IC90, µg/ml)", "setting": "HA of H5N1 A/INDO/5/05", "result": 0.31, "unit": "µg/mL"}, {"measurement": "Neutralization of HA-pseudotypes (IC90, µg/ml)", "setting": "HA of H5N1 A/HK/213/03", "result": 0.02, "unit": "µg/mL"}, {"measurement": "Neutralization of HA-pseudotypes (IC90, µg/ml)", "setting": "[1]", "result": 0.09, "unit": "µg/mL"}, {"measurement": "Neutralization of HA-pseudotypes (IC90, µg/ml)", "setting": "[2]", "result": 1.87, "unit": "µg/mL"}, {"measurement": "Neutralization of HA-pseudotypes (IC90, µg/ml)", "setting": "HA of H5N1 A/AH/1/05", "result": 0.05, "unit": "µg/mL"}, {"measurement": "Neutralization of HA-pseudotypes (IC90, µg/ml)", "setting": "HA of H5N1 A/HK/491/97", "result": 0.07, "unit": "µg/mL"}, {"measurement": "binding result", "setting": "[3]", "result": "binds"}, {"measurement": "binding result", "setting": "[4]", "result": "binds"}, {"measurement": "EC50", "setting": "[5]", "result": 0.088, "unit": "µg/mL"}, {"measurement": "EC50", "setting": "[6]", "result": 0.029, "unit": "µg/mL"}, {"measurement": "Neutralization H5 A/VN/1194/04 IC50 (µg/ml), pseudovirus", "setting": "HA of H5 A/VN/1194/04", "result": 0.0054, "unit": "µg/mL"}, {"measurement": "Neutralization H7 A/ck/FPV Rostock/34 IC50 (µg/ml), pseudovirus", "setting": "[7]", "result": 0.02, "unit": "µg/mL"}, {"measurement": "Neutralization of infectious viruses (IC50, µg/ml)", "setting": "HA of H1N1 A/PR/8/34", "result": 2.2, "unit": "µg/mL"}]}
{"binder": "B2", "values": [{"measurement": "binding result", "setting": "[3]", "result": "binds"}, {"measurement": "binding result", "setting": "[4]", "result": "binds"}, {"measurement": "EC50", "setting": "[5]", "result": 0.062, "unit": "µg/mL"}, {"measurement": "EC50", "setting": "[6]", "result": 0.021, "unit": "µg/mL"}, {"measurement": "EC50", "setting": "[8]", "result": 0.185, "unit": "µg/mL"}, {"measurement": "Neutralization H5 A/VN/1194/04 IC50 (µg/ml), pseudovirus", "setting": "HA of H5 A/VN/1194/04", "result": 0.0035, "unit": "µg/mL"}, {"measurement": "Neutralization H7 A/ck/FPV Rostock/34 IC50 (µg/ml), pseudovirus", "setting": "[7]", "result": 0.0274, "unit": "µg/mL"}]}
{"binder": "B3", "values": [{"measurement": "Neutralization of HA-pseudotypes (IC90, µg/ml)", "setting": "HA of H5N1 A/WS/MONG/05", "result": 0.04, "unit": "µg/mL"}, {"measurement": "Neutralization of HA-pseudotypes (IC90, µg/ml)", "setting": "HA of H5N1 A/INDO/5/05", "result": 0.35, "unit": "µg/mL"}, {"measurement": "Neutralization of HA-pseudotypes (IC90, µg/ml)", "setting": "HA of H5N1 A/HK/213/03", "result": 0.33, "unit": "µg/mL"}, {"measurement": "Neutralization of HA-pseudotypes (IC90, µg/ml)", "setting": "[1]", "result": "> 100", "unit": "µg/mL"}, {"measurement": "Neutralization of HA-pseudotypes (IC90, µg/ml)", "setting": "[2]", "result": "> 100", "unit": "µg/mL"}, {"measurement": "Neutralization of HA-pseudotypes (IC90, µg/ml)", "setting": "HA of H5N1 A/AH/1/05", "result": 0.05, "unit": "µg/mL"}, {"measurement": "Neutralization of HA-pseudotypes (IC90, µg/ml)", "setting": "HA of H5N1 A/HK/491/97", "result": 0.05, "unit": "µg/mL"}, {"measurement": "Neutralization of infectious viruses (IC50, µg/ml)", "setting": "HA of H1N1 A/PR/8/34", "result": "> 100", "unit": "µg/mL"}]}
